Assay [1] deals with His6-MBP-OspR fusion (Kamptonema sp. (formerly Oscillatoria) PCC 6506).
For assay [2] the target is unchanged. This is another data set of the same source.
The target in assay [3] is OspR, untagged (peptide arginase from Kamptonema sp. PCC 6506) (Kamptonema sp. (formerly Oscillatoria) PCC 6506). Kind of assay: SEC; analytical size exclusion chromatography of OspR in solution (Figure S18); conditions in the SI.

3 substances from PMC10028609 can be followed below.

With “His6-OspA precursor protein, unmodified (natural protein)”, the KM of OspR toward unmodified OspA, Michaelis–Menten kinetics by urea detection assay (50 mM TRIS-HCl pH 8.5, 1 mM MnCl2, 25 °C) in assay [1] was 9.01 μM.

In the case of “His6-OspA^MD, fully cyclized-and-epimerized OspA precursor protein (natural protein)”, the KM of OspR toward cyclized-and-epimerized OspA^MD, Michaelis–Menten kinetics by urea detection assay (50 mM TRIS-HCl pH 8.5, 1 mM MnCl2, 25 °C) in assay [2] worked out at 6.33 μM.

As usually defined, the stoichiometry N is a count of units in the complex or per binding partner. “OspR, untagged (peptide arginase from Kamptonema sp. PCC 6506) (enzyme)” displayed a stoichiometry N in assay [3] of 2.
